Patent US5639728A, “Antineoplastic peptide” (priority 1993, dated 1997)

Columns and labels:
[1] = Effect on systolic blood pressure in SD rats; assay type: in vivo, rat; conditions: 1 mg/kg i.v., t-test *P < 0.05 for PΔ10LT, FΔ10LT, Δ10LT, LT, TNFα, -- for FPΔ10LT, MLT
Description: Using 11-week-old Crj:CD(SD) rats 350 to 400 g in weight (Nihon Charles River), effects of each test substance on blood pressure were investigated as follows. The aforementioned rats were given ether anesthesia, hair in the right femoral region was cue with clippers, and the skin was cut open using a small scissors. Xylocaine jelly (local anesthetic) was then applied to the cut skin, and each blood vessel was carefully peeled using a tweezers. After the peeling, an SP10 cannulation tube equipped with a three-way cock (Natsume) was attached to arteries and veins, and 200 unit/ml heparin solution was injected therefrom.
After insertion, the skin was sutured using an automatic stitcher, and the rats were secured to a stationary platform (Natsume, Boormann cage). After securing, air in the three-way cock of the arterial cannula was completely removed, and a polygraph (Nihon Denki Sanei, Model 363 System) pressure transducer was connected. After connection, the polygraph was set up, blood pressure measurement was begun, and when blood pressure and heart rate had stabilized, each tested substance used in the foregoing antitumor effect testing was administered by intravenous injection, and 24 hour systolic blood pressure was measured after administration. […]

[2] = Toxicity deaths (LD50) in Balb/c mice; assay type: in vivo, mouse; conditions: i.v. twice per week, five times; female Balb/c mice
Procedure: (§1) The following experiments were performed in order to calculate a therapeutic index (ratio of toxicity and effectiveness). 2×10^5 Meth A mouse sarcoma cells were transplanted into the dorsal subcutis of 6-week-old female Balb/c mice in single groups comprising from 5 to 10 animals. Seven days after the tumor transplant, the tested substance was dissolved in physiological saline (9.9×10^7 units/ml, 5×10^7 units/mg), and this solution was administered intravenously to the mice twice per week; a total five times. In a control group, physiological saline alone was administered intravenously.
(§2) Based on the tumor growth restriction rates obtained at various concentrations, concentrations restricting tumor growth by 50% (50% effective dose; ED50 mg/kg) were calculated. In each administration group, when toxicity deaths were observed, a 50% lethal quantity (50% lethal dose; LD50 mg/kg) was calculated. The therapeutic index was taken as the ratio of the 50% lethal quantity (LD50) to the 50% tumor growth restriction quantity (ED50)
(§3) Control Δ10LT^4) was the TNF disclosed in JJP, A, S60-185799.

[3] = tested on: Meth A mouse sarcoma cells; experiment: Antitumor effect on Meth A mouse sarcoma transplanted into Balb/c mice; assay type: in vivo; conditions: for Inhibition rate (tumor growth restriction rate): day 21
Procedure: as §1
When 21 days following the transplant had passed, surviving animals were sacrificed, and tumors were excised. The excised tumors were weighed, and a mean tumor weight was calculated in each group. The mean tumor weight in each administration group was compared with the mean tumor weight in the control group, and tumor growth restriction rates were determined.
as §2, §3

[4] = previously known; cited from earlier work

| Molecule | Decrease of blood pressure (% of the control value) 24 hours after administration [1] [%] | LD50 [2] [mg/kg] | Inhibition rate (tumor growth restriction rate) ([3]; 0.23 mg/kg i.v. twice per week, five times) [%] | Inhibition rate (tumor growth restriction rate) ([3]; 0.94 mg/kg i.v. twice per week, five times) [%] | ED50 (50% tumor growth restriction) ([3]; i.v. twice per week, five times, Meth A, female Balb/c mice) [mg/kg] | Treatment coefficient (LD50/ED50) ([3]; therapeutic index, LD50/ED50) | hypotensive effect, in words [4] |
| --- | --- | --- | --- | --- | --- | --- | --- |
| TNFα | -9.6 | 1.08 | 43.3 | 86.5 | 0.31 | 3.5 | hypotension is a side effect |
| LT: native-form human lymphotoxin (LT) (protein, UniProt P01374 35-205, looked up) Lymphotoxin-alpha: LPGVGLTPSAAQTARQHPKMHLAHSTLKPAAHLIGDPSKQNSLLWRANTDRAFLQDGFSLSNNSLLVPTSGIYFVYSQVVFSGKAYSPKATSSPLYLAHEVQLFSSQYPFHVPLLSSQKMVYPGLQEPWLHSMYHGAAFQLTQGDQLSTHTDGIPHLVLSPSTVFFGAFAL | -10.1 | – | – | – | – | – | also has a hypotensive effect |
